Laboratory results: publication PMC5397363 (Molecular microbiology, 2017)

System: fluorogenic substrate
Format: biochemical, Staphylococcus aureus
Settings: 2.0 μM fluorogenic substrate; for measureable activity of mutant enzyme: enzyme 21.38 nM (dimer), n ≥ 3

Molecule	measureable activity of mutant enzyme	activity relative to the wild-type enzyme (enzyme 213.8 nM) [%]
G21A (protein, left off: His6, N-terminal, cleaved | SUMO, N-terminal, cleaved) MITVDITVNDEGKVTDVIMDAHADHGEYGHDIVCAGASAVLFGSVNAIIGLTSERPDINYDDNGGHFHIRSVDTNNDEAQLILQTMLVSLQTIEEEYNENIRLNYK	none	
H22A (protein, left off: His6, N-terminal, cleaved | SUMO, N-terminal, cleaved) MITVDITVNDEGKVTDVIMDGAADHGEYGHDIVCAGASAVLFGSVNAIIGLTSERPDINYDDNGGHFHIRSVDTNNDEAQLILQTMLVSLQTIEEEYNENIRLNYK	none	
D31A (protein, left off: His6, N-terminal, cleaved | SUMO, N-terminal, cleaved) MITVDITVNDEGKVTDVIMDGHADHGEYGHAIVCAGASAVLFGSVNAIIGLTSERPDINYDDNGGHFHIRSVDTNNDEAQLILQTMLVSLQTIEEEYNENIRLNYK	none	
S38A (protein, left off: His6, N-terminal, cleaved | SUMO, N-terminal, cleaved) MITVDITVNDEGKVTDVIMDGHADHGEYGHDIVCAGAAAVLFGSVNAIIGLTSERPDINYDDNGGHFHIRSVDTNNDEAQLILQTMLVSLQTIEEEYNENIRLNYK	none	2.1 ± 0.2
